From paper PMC10980799, “The transcription of the main gene associated with Treacher–Collins syndrome (TCOF1) is regulated by G-quadruplexes and cellular nucleic acid binding protein (CNBP)”

How the values were obtained:
CNBP [1] = target: T1, CNBP (Homo sapiens, UniProt P62633 1-177); assay: EMSA; 100 mM K+; apparent Kd, SEM, n=3; EMSA: 20 mM HEPES pH 8.0, 10 mM MgCl2, 1 mM EDTA, 0.5 ug/ul heparin, 1 mM DTT, 1 ug/ul BSA, 10% glycerol, 100 mM KCl or LiCl, probe 0.75 uM, 30 min at 37 C; CNBP diluted in 50 mM Tris-HCl pH 7.5, 300 mM NaCl, 1 mM DTT, 5 mM imidazole, 0.1 mM ZnCl2; details: protein: recombinant, tags: tag-free (from pET-32a-TEV-CNBP, tag removed), label: none (SYBR Gold stain)
T1 sequence (P62633 whole entry): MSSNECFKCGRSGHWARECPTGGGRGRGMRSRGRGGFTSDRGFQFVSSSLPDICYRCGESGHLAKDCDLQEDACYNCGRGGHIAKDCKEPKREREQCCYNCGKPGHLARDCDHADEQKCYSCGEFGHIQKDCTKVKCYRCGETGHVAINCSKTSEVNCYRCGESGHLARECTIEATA

CNBP [2] = target: T1, CNBP; assay: EMSA; 100 mM Li+; apparent Kd, SEM, n=3; EMSA: 20 mM HEPES pH 8.0, 10 mM MgCl2, 1 mM EDTA, 0.5 ug/ul heparin, 1 mM DTT, 1 ug/ul BSA, 10% glycerol, 100 mM KCl or LiCl, probe 0.75 uM, 30 min at 37 C; CNBP diluted in 50 mM Tris-HCl pH 7.5, 300 mM NaCl, 1 mM DTT, 5 mM imidazole, 0.1 mM ZnCl2; details: protein: recombinant; tags: tag-free (from pET-32a-TEV-CNBP, tag removed); label: none (SYBR Gold stain); single strand, unfolded

Binder	Kd (CNBP [2]) [nM]	Kd (CNBP [1]; parallel G4) [nM]	also measured
TGCTGGTGGTCATGGGGGAGTGGAGAGCAT (structured_DNA) [Dr2393 folded as G4 (K+)]			Kd (CNBP [1]; G4): 331 ± 80 nM
TGCTGGTGGTCATGGGGGAGTGGAGAGCAT (ssDNA) [Dr2393 unfolded (Li+)]	257 ± 70		
TGGGGTGGGGTGAGGTGGGGAAGAGGGAAC (structured_DNA) [Hs791 folded as G4 (K+)]		271 ± 70	
TGGGGTGGGGTGAGGTGGGGAAGAGGGAAC (ssDNA) [Hs791 unfolded (Li+)]	199 ± 55		
GTGTATGTGGGGGGGGGGGGCGGGTGGTAG (ssDNA) [Hs2160 unfolded (Li+)]	287 ± 100		
GTGTATGTGGGGGGGGGGGGCGGGTGGTAG (structured_DNA) [Hs2160 folded as G4 (K+)]		431 ± 120	
